We go through 3 substances from PMC4603552.

Like-named read-outs stand apart in the source and are kept apart here.

Take “PML (PML-IV): K65R (FLAG-PML-IV-GFP, CHO-K1)”: the other entry (SUMOylation at K65) was “decreases”.
Still for that read-out and setting: then “PML (PML-IV): K65R in FLAG-PML-IV (aa 49-633)”, with “decreases”.
As to “PML (PML-IV): K160R (FLAG-PML-IV-GFP, CHO-K1)”, the other result (SUMOylation at K160) is “decreases”.
